Data from patent publication US20200399389A1 (PHANES THERAPEUTICS, published 2020).

B1: 60A9-H3L3 (antibody, V domains shown)
VH: EVQLVESGGGLVQPGQSLKLSCKASGYAFSSYWMNWVRQAPGKGLEWIGQIYPGDGDTYYNPSVKGRATLSADKSKNTAYLQLNNLRAEDTAVYYCAREAIYYGNYVFTYWGQGTLVTVSS
VL: DIQMTQSPSLLSASLGDRVTITCKSSQSLLNSSNQKNYLAWYQQKPGQSPKLLVYFASTRDSGVPDRFSGSGSGTDFTLTISSLEPEDFATYYCQQHYSTPLTFGGGTKLEIK
B2: 60A9-H5L4 (antibody, V domains shown)
VH: EVQLVESGGGLVQPGQSLKLSCKASGYAFSSYWMNWVKQRPGKGLEWIGQIYPGDGDTYYSGKFKGRATLSADKSKNTAYLQLNNLRAEDTAVYYCAREAIYYGNYVFTYWGQGTLVTVSS
VL: DIVMTQSPSLLSASLGDRVTISCKSSQSLLNSSNQKNYLAWYQQKPGQSPKLLVYFASTRDSGVPDRFSGSGSGTDFTLTISSLEPEDFATYFCQQHYSTPLTFGAGTKLEIK
B3: 39G8-H1L3 (antibody, V domains shown)
VH: QVQLVQSGAEVKKPGASVKVSCKASGYTFTSYWMHWVRQAPGQGLEWIGEIDPSGGYTNYAQKFQGRSTLTVDKSISTAYMELSRLRSDDTAVYYCARNYYYGSSGTMDYWGQGTLVTVSS
VL: DIVMTQSPDSLAVSLGERATMSCKSSQSLLNSSNQKNYLAWYQQKPGQPPKLLVYFASTRESGVPDRFSGSGSGTDFTLTISSLQAEDVAVYFCQQHYSTPYTFGGGTKVEIK
B4: 39G8-H2L3 (antibody, V domains shown)
VH: QVQLVQSGAEVKKPGASVKVSCKASGYTFTSYWMHWVRQAPGQGLEWIGEIDPSGGYTNYAQKFQGRSTLTVDTSISTAYMELSRLRSDDTAVYYCARNYYYGSSGTMDYWGQGTLVTVSS
VL: DIVMTQSPDSLAVSLGERATMSCKSSQSLLNSSNQKNYLAWYQQKPGQPPKLLVYFASTRESGVPDRFSGSGSGTDFTLTISSLQAEDVAVYFCQQHYSTPYTFGGGTKVEIK
B5: 39G8-H3L3 (antibody, V domains shown)
VH: QVQLVQSGAEVKKPGASVKVSCKASGYTFTSYWMHWVRQAPGQGLEWIGEIDPSGGYTNYNQKFQGRSTLTVDKSISTAYMELSRLRSDDTAVYYCARNYYYGSSGTMDYWGQGTLVTVSS
VL: DIVMTQSPDSLAVSLGERATMSCKSSQSLLNSSNQKNYLAWYQQKPGQPPKLLVYFASTRESGVPDRFSGSGSGTDFTLTISSLQAEDVAVYFCQQHYSTPYTFGGGTKVEIK

Target: T1, HIS-tagged human CD73 (huCD73-HIS) (human, UniProt P21589 27-547)
T1 sequence: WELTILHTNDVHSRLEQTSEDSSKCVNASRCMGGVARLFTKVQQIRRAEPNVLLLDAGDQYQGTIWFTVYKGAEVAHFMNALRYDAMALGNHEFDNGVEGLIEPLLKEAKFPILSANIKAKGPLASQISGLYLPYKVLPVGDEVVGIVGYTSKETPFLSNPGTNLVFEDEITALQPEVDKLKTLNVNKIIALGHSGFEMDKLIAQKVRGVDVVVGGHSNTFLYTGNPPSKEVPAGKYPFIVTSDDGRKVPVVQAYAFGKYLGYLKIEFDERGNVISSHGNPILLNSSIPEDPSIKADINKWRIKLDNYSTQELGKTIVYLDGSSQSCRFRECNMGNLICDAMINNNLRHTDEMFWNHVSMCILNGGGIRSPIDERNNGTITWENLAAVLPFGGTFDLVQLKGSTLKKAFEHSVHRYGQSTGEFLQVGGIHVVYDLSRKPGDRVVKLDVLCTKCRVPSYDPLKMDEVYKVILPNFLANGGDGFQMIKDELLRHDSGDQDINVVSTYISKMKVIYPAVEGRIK
Assay: cell-based or functional assay

B1 was tested. Which “IC50 (nM), huCD73 enzymatic assay in solution” value did it give?
The value was 2.09 nM.

Target: T2, human CD73 expressed on the surface of cells (human, UniProt P21589 27-549)
T2 sequence: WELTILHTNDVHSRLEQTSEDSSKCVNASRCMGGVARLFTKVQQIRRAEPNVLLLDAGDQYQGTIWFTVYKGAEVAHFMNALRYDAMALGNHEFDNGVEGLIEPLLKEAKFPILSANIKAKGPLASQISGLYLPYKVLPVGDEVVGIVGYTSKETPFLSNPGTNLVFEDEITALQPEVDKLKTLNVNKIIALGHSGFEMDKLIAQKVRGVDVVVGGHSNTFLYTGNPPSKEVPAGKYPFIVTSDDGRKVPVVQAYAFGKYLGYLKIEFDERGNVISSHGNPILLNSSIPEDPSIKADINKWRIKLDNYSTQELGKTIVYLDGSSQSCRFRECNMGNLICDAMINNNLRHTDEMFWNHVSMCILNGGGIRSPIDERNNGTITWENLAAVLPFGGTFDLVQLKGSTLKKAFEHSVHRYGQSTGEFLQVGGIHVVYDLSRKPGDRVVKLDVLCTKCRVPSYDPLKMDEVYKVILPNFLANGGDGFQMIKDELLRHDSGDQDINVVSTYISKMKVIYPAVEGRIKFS
Assay: cell-based or functional assay

For B1, which “IC50 (nM), cell-based CD73 activity assay (A375 cells)” value (“IC50 (nM) … (A375 cells)” for short) is on record?
Its value is 65.7 nM.

For B2, which “IC50 (nM) … (A375 cells)” value is on record?
The value was 30.1 nM.

How did the “IC50 (nM) … (A375 cells)” value turn out when B3 was run?
Its value is 49.6 nM.

Which “IC50 (nM) … (A375 cells)” value does the source give for B4 here?
The value was 66.3 nM.

B5 was tested. Which “IC50 (nM) … (A375 cells)” value did it give?
Its value is 56.1 nM.
